In PMC8967717 (Nature, 2022) one finds binding result and Kd data, which are given here for 17 molecules.

For assay [1], the target named is SARS-CoV-2 wild-type spike (S) protein (SARS-CoV-2, WT (MN908947), UniProt P0DTC2).
Assay [2] deals with T1, SARS-CoV-2 wild-type spike receptor-binding domain (SARS-CoV-2, WT (MN908947), UniProt P0DTC2).
In assay [3] the target is T1, SARS-CoV-2 wild-type spike …. The experiment in a line: BLI. The note with it: both partners purified.
Assay [4] has as its target SARS-CoV-2 wild-type spike N-terminal domain (SARS-CoV-2, WT (MN908947), UniProt P0DTC2). The assay can be described thus: ELISA. The note with it: both partners purified.

B1: XGv387 (antibody, V domains shown)
VH: EVQLVESGGGLIQPGGSLRLSCAASGVIVSSNYMSWVRQAPGKGLEWVSVMYSGGSTFYADSVKGRFTISRDNSKNTLYLQMNRLRAEDTAVYFCARGDGGSYLGGAFDIWGQGTMVTVSS
VL: DIQMTQSPSSLSASVGDRVTLTCRASQSISTYLNWYQQKPGKAPKLLIYAASSLQSGVPSRFSGSGSGTDFTLTINSLQPEDFATYYCQQSYSLPALTFGGGTKVEIK
Take B1: the binding result in assay [1] and in assay [2] was “binds” each time.

B2: XGv347 (antibody, V domains shown)
VH: QMQLVQSGPEVKKPGTSVKVSCKASGFTFTDVSSLQWVRQARGQRLEWIGWTVVGTGNTNYAPRFQERVTITTDKSTSTAYMELSSLRSEDTAVYYCAAPFCSETSCSDGFDLWGQGTKVTVSS
VL: EIVLTQSPGTLSLSPGDRATLSCRASQSVRISYLAWYQQKPGQAPRLLISGSSSRATGIPDRFSASGSGTDFALTISRLEPEDFAVYYCQQYDNSPWTFGQGTKVEVK
On to B2, for which the Kd in assay [3] was 0.0814 nM. For the same molecule, the binding result in assay [4] is on record as “no binding”.

B3: XGv265 (antibody, V domains shown)
VH: QITLKESGPTLVKPTQTLTLTCNFSGFSLNTYGVGVGWIRQPPGKALEWLALIYWDGDERYGPFFKNKVTIAKDTSKNQVVLTMTNMDPVDTATYYCARHLIPTIFDYWGQGTLVTVSS
VL: QSALTQPASVSGSPGQSITISCTGTSSDVGGSNYVSWYQHHPDRAPKLLIYEVTNRPSGVSNRFSGSKSANTASLTISGLQAEDEADYYCSSYTTTSTHILFGGGTKLTV
As for B3, the Kd in assay [3] worked out at 0.59 nM.

B4: XGv296 (antibody, V domains shown)
VH: QVQLVQSGAEVKKPGASVKISCKASGYTFTDHYVHWVRQAPGQGLEWMAIVNPSDGSTSYAQKFQGRVTMTSDTSTTTIYMELSSLRSGDTAVYYCARAEGSSWLGWFDPWGQGTQVTVSS
VL: QSVLTQPPSASGTPGQRVTISCSGSSSNIGGHYVYWYQQFPGTAPKLLIYRSNQRPSGVPDRFSGSKSGTSASLAISGLRSEDEADYFCAAWDDGLRGSGWVFGGGTTLTV
On to B4, for which the binding result in assay [1] and in assay [2] was “binds” in each case.

B5: XGv420 (antibody, V domains shown)
VH: QVQLQESGPGLVKPSGTLSLTCAVSGGSINSNNWWSWVRQPPGKGLEWIGEIYHNGNTNYNPSLKSRVTISVDTSKNQFSLRLSSVTAADTAVYYCARGDSLDWFDPWGQGTLVTVSS
VL: QSALTQPASVSGSPGQSITISCTGTSSDVGSYNYVSWYQQLPGKAPKLMIYDVSNRPSGVSNRFSGSKSGNTASLTISGLQAEDEADYYCSSYTSSSTLVFGTGTKVTVL
As for B5, the binding result in assay [1] and in assay [2] was “binds” each time.

B6: XGv294 (antibody, V domains shown)
VH: QVQLVQSGAEVKKPGASVKVSCKASGYTFTRHYIHWVRQAPGQGLEWMGIINPSGGGASYAQKFQGRVTMTRDTSTSTVYMEVSSLRYEDTAVYYCARAEGGSWLGWFDPWGQGTLVTVSS
VL: QSVLTQPPSASGTPGQRVTISCSGGSSNIGNNYVYWYQQLPGTAPKLLIYGNNQRPSGVPDRFSGSKSGTSASLAISGLRSEDEADYHCAAWDDGLSGSGWVFGGGTKLT
In the case of B6, the binding result in assay [1] and in assay [2] was “binds” throughout.

B7: XGv282 (antibody, V domains shown)
VH: QVQLVQSGAEVKKPGSSVKVSCKASGDTFSSYTFSWVRQAPGQGLEWMGRSIPIVGKAIYAQEFQGRVTISADRSTTTVYMELSSLRSDDTAVYYCARDQSGFDFFYYDHWGQGTLVAVSS
VL: QSVLTQPPSASGTPGQRVTISCSGSGSNIGSNTINWYQQLPGTAPKVLIYRNNERPSGVPDRFSGSKSGTSASLTISGLQSEDEAYYHCAAWDDSLNGPVFGGGTKLTVL
As to B7, the Kd in assay [3] came out at 0.344 nM. Moreover, the binding result in assay [4] is “no binding”.

B8: XGv345 (antibody, V domains shown)
VH: QVQLQESGPGLVKPSQTLSLTCTVSGGSIRSGSYYWSWIRQPAGKGLEWIGRVYTSGSTNYNPSLKTRVTISLETSKNHFSLKLSSVTAADTAVYYCARGEWEEDFALWGRGTLVTVSS
VL: DIQMTQSPSSLSASVGDRVTITCRASQSIASHLNWYQQKPGKAPKLLIYGASTLQSGVPSRFSGSGSGTAFTLTISSVQPEDFATYYCQQSYSAITFGQGTRLEIK
In the case of B8, the binding result in assay [1] and in assay [2] was “binds” each time.

B9: XGv293 (antibody, V domains shown)
VH: QVQLVQSGAEVKKPGASVKVSCKASGYTFTSYFLHWVRQAPGQGLEWLGIIDPSGGASYAQKFQGRVTMTSDTSTSTVYMDLGSLRSEDTAVYYCARAEGTSWLGWFDPWGQGSLVTVSS
VL: QSVLTQPPSASGTPGQRVTISCSGSSSNIGTNYVYWYQQLPGTAPKLLIYRNYQRPSGVPDRFSGSKSGTSASLAISGLRSEDEAEYYCAAWDNGLSGSGWVFGGGTKLTVL
In the case of B9, the binding result in assay [1] and in assay [2] was “binds” throughout.

B10: XGv289 (antibody, V domains shown)
VH: QVQLVQSGAEVKKPGASLKVSCRASGYTFTSHFIHWVRQAPGQGLEWMGIINPSGGASYAQNFRDRVTMTTDPSTSTVYMELGSLRSEDTAVYYCARAEGSSWLGWFDPWGQGTLVTVSS
VL: QSVLTQPPSASGTPGQRVTIPCSGSSSNIGNNYVYWYQQLPGTAPKLLVYGNNQRPSGVPDRFSVSKSGTSASLAISGLRSEDEADYYCAAWDDGLSGSGWVFGGGTKLTVL
As to B10, the Kd in assay [3] was 0.515 nM. Besides, in assay [4], the binding result is reported as “no binding”.

B11: XGv297 (antibody, V domains shown)
VH: QVQLVQSGAEVKKPGASVKVSCRTSGYTFTAYYIHWVRQVPGQGLEWMGIINPSGGGASYAQTFQGRVSLTRDTSTRTVYMDLSSLISEDTAVYYCARAEGTHWLGWFDPWGQGTLVTVSS
VL: QSVLTQPPSASGTPGQRVTISCSGSSSNIASNSVYWYQQLPGTAPKLLIYRNNQRPSGVPDRFSGSTSGTSASLAISGLRSEDEADYYCAAWDDNLSGSGWVFGGGTKLTVL
With B11, the binding result in assay [1] and in assay [2] was “binds” in each case.

B12: XGv295 (antibody, V domains shown)
VH: QVQLVQSGAEVKKPGASVKVSCKASGYIFTNYYIHWVRQAPGQGLEWMAIFNPSAATASYAQKFQGRVTMTRDTSTTTVYMELRSLRFDDTAVYYCARAEGTSWLGWFDPWGQGTLVTVSS
VL: QSVLTQPPSASGTPGQRVTVSCSGSSSNIGSHDVYWYQQLPGTAPKLLIYKNDQRPSGVPDRFSGSTSGTSASLAISGLRSEDEADYYCAAWDDGLSGSGWVFGGGTKLTVL
Turning to B12, the binding result in assay [1] and in assay [2] was “binds” each time.

B13: XGv302 (antibody, V domains shown)
VH: EVQLVESGGGLIQPGGSLRLSCAASGITVSSNYMNWVRQAPGKGLEWVSVIYAGGTTFYADSVKGRFTISRDSSKNTLSLQMNSLRVEDTAVYYCVRNLVVYGMDVWGQGTTVTVSS
VL: DIQLTQSPSSLSASVGDRVTITCRASQGISSDLAWYQQKPGKAPKLLIYGASTLQSGVPSRFSGSGSGAHFTLTINSLQPEDFAIYYCQQLNSEFLTFGGGTKVEIK
As for B13, the binding result in assay [1] and in assay [2] was “binds” in each case.

B14: XGv304 (antibody, V domains shown)
VH: EVQLVESGGGLIQPGGSLRLSCEASEITVSSNYMRWVRQAPGKGLEWVSLIYAGGSTFYADSVKGRFTISRDNSKNTLYLQMNSLRVEDTAVYYCARDLMVYGMDVWGQGTTVTVSS
VL: DIQLTQSPSSLSASVGDRVTITCRASQGISSYLAWYQQKPGKAPNLLIYGASTLQSGVPSRFSGSGSGTDFTLTISSLQPEDFATYYCQHLNSDPLTFGGGTKVEIK
In the case of B14, the binding result in assay [1] and in assay [2] was “binds” each time.

B15: XGv303 (antibody, V domains shown)
VH: EVQLVESGGGLIRPGGSLRLSCAASGITVSSNYMTWVRQAPGKGLEWVSVIYSGGTTFYADSVKGRFTISRDNSKNTLYLQMNSLRAEDTAVYYCARNLVVYGMDVWGQGTTVTVSS
VL: DIQLTQSPSSLSASVGDRVTITCRASQGISSDLAWYQQKPGKAPKLLIYGASTLQGGVPSRFSGSGSGTDFTLTISRLQPEDCAIYYCQQLNSEFLTFGGGTKVEIK
Take B15: the binding result in assay [1] and in assay [2] was “binds” in each case.

B16: XGv402 (antibody, V domains shown)
VH: QVQLVESGGGVVQPGRSLRLSCAASGFTFNNYAMHWVRQAPGKGLEWVAVISYDGSNEFYLDSVKGRFAISRDNSKNTLYLQTNSLRGEDTAVYYCARESRRGADYWGQGTLVTVSS
VL: DIQMTQSPSSLSASVGDRVTITCRASQIISNYLNWYQQKPGKAPKLLIYAASSLQSGVPSRFSGSGSGTDFTLTISSLQPEDSATYYCQQSFSPLWTFGPGTKVEIK
For the molecule B16, the binding result in assay [1] and in assay [2] was “binds” throughout.

B17: XGv338 (antibody, V domains shown)
VH: EVQLVESGGGLVQPGGSLRLSCAASGFPFITYWMSWVRQTPGKGLEWVANIKEDGSEKNYVDSVKGRFTVSRDNAENSLYLRMNSLRIEDTAVYYCAREIRRTIPTSGMDVWGQGTTVTVSS
VL: SYELTQPPSVSVSPGQTARITCTGDALPKQYAYWYQQKPGQAPVLIISKDNERASGIPERISGSRSGTTVTLTISGVQAEDEADYYCQSADSSASYSYVFGTGTKVTVL
B17: the binding result in assay [1] and in assay [2] was “binds” each time.
